Assay results from patent US20110229459A1 (Chugai, published 2011).

Legend:
soluble human FcRn = biological target: T1, soluble human FcRn (human, UniProt P55899 24-290; P16213 21-119); test: SPR (Biacore 3000), pH 6.0: antibody captured on the chip, human FcRn as analyte, steady state affinity
T1 construct: The stated ranges include the signal regions; also called hFcRn; complex of FcRn and β2-microglobulin
Description: The binding to human FcRn was assessed using Biacore 3000.
The affinity was calculated using BIAevaluation software. The obtained sensorgram was used to calculate the amount of hFcRn bound to the antibody immediately before the end of human FcRn injection. This was fitted by the steady state affinity method to calculate the affinity of human FcRn for the antibody.
The binding activities of huPM1-IgG1 and huPM1-M58 to human FcRn were assessed using BIAcore.

[1] = biological target: T2, cytoplasmic domain-lacking human NR10 on CHO cells (human, UniProt Q8NI17 20-553); test: FMAT competition on hNR10-expressing CHO cells; blocked ligand: FMAT Blue-labeled hIL-31; mean +/- S.D. (n=3)
T2 construct: The construct lacks the cytoplasmic domain; also called hNR10-expressing CHO cells; hNR10
T2 sequence: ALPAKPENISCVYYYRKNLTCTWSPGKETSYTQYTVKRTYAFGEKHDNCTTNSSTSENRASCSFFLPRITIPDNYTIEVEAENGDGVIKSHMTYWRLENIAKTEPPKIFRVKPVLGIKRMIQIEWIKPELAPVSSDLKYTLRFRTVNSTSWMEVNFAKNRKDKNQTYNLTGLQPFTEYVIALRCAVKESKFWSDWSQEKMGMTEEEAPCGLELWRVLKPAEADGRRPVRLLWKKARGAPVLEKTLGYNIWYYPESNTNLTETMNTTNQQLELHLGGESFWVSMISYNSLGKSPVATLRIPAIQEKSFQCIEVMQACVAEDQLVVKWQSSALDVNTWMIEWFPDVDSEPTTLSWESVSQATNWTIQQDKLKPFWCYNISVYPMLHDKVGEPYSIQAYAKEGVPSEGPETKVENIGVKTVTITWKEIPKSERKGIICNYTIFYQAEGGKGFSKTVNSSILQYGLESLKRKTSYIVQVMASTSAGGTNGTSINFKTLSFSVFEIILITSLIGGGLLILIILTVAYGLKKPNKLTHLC
Description: Antibodies were assessed for the activity of inhibiting the IL-31/NR10 binding by using hNR10-expressing CHO cells as described below. The chimeric NS22 antibody and NS22_H0L0 (H chain, H0-SKSC/SEQ ID NO: 54; L chain, L0/SEQ ID NO: 56) were diluted at an appropriate concentration using Assay buffer (10 mM HEPES, 140 mM NaCl, 2.5 mM CaCl₂, 3 mM MgCl₂, 2% FBS, 0.01% NaN₃, pH7.4), and further eight serial dilutions were prepared at a common dilution ration of 2. The dilutions were added at 40 μl/well to plates (96-Well FMAT Plates, Applied Biosystems). Then, FMAT Blue-labeled hIL-31 was diluted 400 times with Assay buffer, and added at 20 μl/well. Finally, a cell suspension adjusted to 2.5×10⁵ cells/ml using Assay buffer was added at 40 μl/well (final 1×10⁴ cells/well). Two hours after addition of cells, the fluorescence (FL1) was measured using the 8200 Cellular Detection System (Applied Biosystems).
Each variant was tested for the activity of inhibiting the hIL-31/hNR10 binding by using FMAT. The test was carried out according to the method as described in Example 4.

rhNR10 = biological target: T3, rhNR10 (human, UniProt Q8NI17 20-519, limits assumed); test: SPR (Biacore T100): antibody captured on Protein A, rhNR10 as analyte
T3 construct: also called recombinant human NR10; IL-31 receptor
T3 sequence: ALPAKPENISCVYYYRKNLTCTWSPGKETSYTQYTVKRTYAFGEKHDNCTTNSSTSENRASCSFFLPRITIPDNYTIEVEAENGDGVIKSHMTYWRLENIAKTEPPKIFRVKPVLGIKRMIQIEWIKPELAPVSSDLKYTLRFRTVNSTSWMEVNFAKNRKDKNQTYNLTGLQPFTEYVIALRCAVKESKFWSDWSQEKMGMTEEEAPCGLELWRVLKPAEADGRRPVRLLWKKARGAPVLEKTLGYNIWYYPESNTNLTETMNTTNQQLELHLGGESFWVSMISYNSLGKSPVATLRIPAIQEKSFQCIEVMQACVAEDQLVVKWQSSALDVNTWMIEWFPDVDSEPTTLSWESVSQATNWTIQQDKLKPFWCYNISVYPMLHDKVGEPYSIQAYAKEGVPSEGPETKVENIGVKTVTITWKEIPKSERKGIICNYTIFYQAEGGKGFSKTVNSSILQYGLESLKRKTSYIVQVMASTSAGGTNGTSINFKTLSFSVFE
Description: Kinetic analysis of the antigen-antibody reaction was carried out using Biacore T100 (GE Healthcare Biosciences). The antigen-antibody interaction was measured by immobilizing rec-Protein A (hereinafter Protein A) (ZYMED) onto a sensor chip, capturing an antibody on the immobilized Protein A, and then reacting the antigen as an analyte. Various concentrations of rhNR10 were used as the antigen. The kinetic parameters, association rate constant kₐ (1/Ms) and dissociation rate constant kd (1/s), were calculated from the sensorgrams obtained by the measurement. Then, KD (M) was determined based on the rate constants. Each parameter was determined using Biacore T100 Evaluation Software version 1.1 (GE Healthcare Biosciences).
The running buffer used was HBS-EP+. Each antibody was prepared at 0.25 μg/ml, or prepared so that about 100 RU would bind to Protein A. rhNR10 used as an analyte was prepared at 0, 38.5, 77.0, and 154 nM, or at 0, 19.25, and 77.01 nM using HBS-EP+. In the measurement, first, the antibody solution was captured on Protein A, and an analyte solution was reacted at a flow rate of 20 μL/min for three minutes. Then, the solution was switched to HBS-EP+, and the dissociation phase was measured for five minutes. […] The obtained sensorgrams were kinetically analyzed using the Biacore-specific data analysis software, Biacore T100 Evaluation Software Version 1.1.

T1 sequence (P55899 24-290 limits assumed, chain 1 of 2): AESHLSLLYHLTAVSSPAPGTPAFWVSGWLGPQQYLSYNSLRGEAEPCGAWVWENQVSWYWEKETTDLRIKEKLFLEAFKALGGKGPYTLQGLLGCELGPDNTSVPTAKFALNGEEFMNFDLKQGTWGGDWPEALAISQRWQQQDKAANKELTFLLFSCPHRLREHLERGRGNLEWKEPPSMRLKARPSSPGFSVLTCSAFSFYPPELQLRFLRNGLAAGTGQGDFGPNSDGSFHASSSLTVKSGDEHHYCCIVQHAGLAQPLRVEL
T1 sequence (P16213 21-119 limits assumed, chain 2 of 2): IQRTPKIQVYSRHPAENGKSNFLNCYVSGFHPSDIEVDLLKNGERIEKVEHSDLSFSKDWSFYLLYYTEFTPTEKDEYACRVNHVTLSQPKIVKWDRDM

B1: huPM1-M58 (humanized anti-IL-6 receptor antibody with constant region M58) (antibody)
heavy: QVQLQESGPGLVRPSQTLSLTCTVSGYSITSDHAWSWVRQPPGRGLEWIGYISYSGITTYNPSLKSRVTMLRDTSKNQFSLRLSSVTAADTAVYYCARSLARTTAMDYWGQGSLVTVSSASTKGPSVFPLAPSSKSTSGGTAALGCLVKDYFPEPVTVSWNSGALTSGVHTFPAVLQSSGLYSLSSVVTVPSSNFGTQTYTCNVDHKPSNTKVDKTVERKSCVECPPCPAPPVAGPSVFLFPPKPKDTLMISRTPEVTCVVVDVSQEDPEVQFNWYVDGVEVHNAKTKPREEQFNSTFRVVSVLTVVHQDWLNGKEYKCKVSNKGLPAPIEKTISKTKGQPREPQVYTLPPSQEEMTKNQVSLTCLVKGFYPSDIAVEWESNGQPENNYKTTPPMLDSDGSFFLYSKLTVDKSRWQEGNVFSCSVMHEALHNHYTQKSLSLSP
light: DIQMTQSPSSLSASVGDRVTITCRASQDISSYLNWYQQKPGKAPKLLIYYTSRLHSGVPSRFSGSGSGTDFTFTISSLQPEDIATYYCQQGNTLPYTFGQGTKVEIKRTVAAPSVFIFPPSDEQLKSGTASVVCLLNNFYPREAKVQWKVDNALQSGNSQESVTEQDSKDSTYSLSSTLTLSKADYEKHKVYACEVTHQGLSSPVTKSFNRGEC
notes: copies: 2 + 2
For B1, the “fold binding activity against huPM1-IgG1” value (soluble human FcRn) was roughly 1.4 times.

B2: Hp9 variant of H0L0 (antibody, V domains shown)
VH: QVQLVQSGAEVKKPGASVKVSCKASGYTFTGYIMNWVRQAPGQGLEWMGLINPYNGGTSYNQQFKGRVTITADESTSTAYMELSSLRSEDTAVYYCARDGYDDGPYTMDYWGQGTLVTVSS
VL: DIQMTQSPSSLSASVGDRVTITCRTSENIYSFLAWYQQKPGKAPKLLIYNAKTLAKGVPSRFSGSGSGTDFTLTISSLQPEDFATYYCQHHYESPLTFGGGTKVEIKR
notes: Variant of H0L0; also called Hp9-VH
In the case of B2, the “IC50 (read off the curve)” value [1] is reported as roughly 0.09 mg/L.

B3: H0L12 (H chain, H0-M58; L chain, L12) (antibody, V domains shown)
VH: QVQLVQSGAEVKKPGASVKVSCKASGYTFTGYIMNWVRQAPGQGLEWMGLINPYNGGTSYNQKFKGRVTITADESTSTAYMELSSLRSEDTAVYYCARDGYDDGPYTMDYWGQGTLVTVSS
VL: DIQMTQSPSSLSASVGDRVTITCQTSEDIYSFVAWYQQKPGKAPKLLIYNAQTEAQGVPSRFSGSGSGTDFTLTISSLQPEDFATYYCQHHYDSPLTFGGGTKVEIKR
B3 was tested, and the “fold affinity against H0L0” value (rhNR10) was roughly 2 times.
